Data from patent US20230132604A1 (KEYMED BIOSCIENCES, published 2023).

T1: recombinant human CD38 extracellular region protein (Val 43-Ile 300) with N-terminal 6×his tag (human, UniProt P28907 43-300)
T1 construct: range 43-300; Expressed in HEK293.6E cells and purified on a nickel chelate column; also called human CD38 recombinant protein; human CD38 protein
T1 sequence: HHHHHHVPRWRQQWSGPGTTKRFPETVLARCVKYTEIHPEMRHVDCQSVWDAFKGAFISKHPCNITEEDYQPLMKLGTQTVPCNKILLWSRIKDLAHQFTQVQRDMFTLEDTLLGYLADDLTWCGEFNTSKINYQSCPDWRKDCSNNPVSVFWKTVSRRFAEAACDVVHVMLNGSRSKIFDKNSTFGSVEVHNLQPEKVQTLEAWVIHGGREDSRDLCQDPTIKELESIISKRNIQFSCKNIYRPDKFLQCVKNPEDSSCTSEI

T2: human CD38 expressed on tumor cells (Daudi, NALM-6, Ramos.2G6.4C10, TALL-1) (human, UniProt P28907 1-300)
T2 construct: whole, on cells; Endogenous CD38 on human tumor cell lines; also called CD38 molecules expressed on Daudi; CD38 on Daudi cells
T2 sequence (looked up): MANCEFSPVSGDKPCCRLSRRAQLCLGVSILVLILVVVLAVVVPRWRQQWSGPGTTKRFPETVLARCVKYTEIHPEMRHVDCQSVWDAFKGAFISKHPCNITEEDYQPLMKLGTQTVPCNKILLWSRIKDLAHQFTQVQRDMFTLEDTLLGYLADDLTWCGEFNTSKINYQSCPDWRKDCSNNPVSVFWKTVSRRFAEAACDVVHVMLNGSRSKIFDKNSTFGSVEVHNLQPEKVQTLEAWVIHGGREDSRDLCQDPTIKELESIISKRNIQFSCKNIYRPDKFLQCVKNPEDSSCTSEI


Legend:
[1] = target: T1, recombinant human CD38 extracellular …; experiment: ELISA, plate coated with human CD38 protein, detection with HRP goat anti-human IgG Fc, OD450
[2] = target: T2, human CD38 expressed on tumor cells …; experiment: flow cytometry (FACS) on Daudi cells
Procedure: (§1) Different cells in logarithmic phase were blocked with 3% BSA for 30 minutes, and then plated into a U-shaped 96-well plate at 5×10⁴ cells/100 μL; centrifugation was conducted at 1100 rpm for 3 minutes, the supernatant was discarded, the cells were patted and loosed gently, 50 μL of serially diluted antibody (diluted 3-fold in 5 series, with an initial concentration of 30 μg/mL) was added to each well, and the mixture was incubated at 4° C. for 1 hour. After the incubation, 180 μL 0.5% BSA was added to each well, wash 3 times, 30 μL/well of secondary antibody Alexa Fluro 647 anti-human IgG (Jackson ImmunoResearch, Cat: 109-606-170) was added, and the mixture was incubated at 4° C. for 45 minutes. After the incubation, each well was washed 3 times with 180 μL 0.5% BSA, and finally resuspended in 50 μL PBS each well for iQue (Intellicyt, USA) assay.

[3] = target: T2, human CD38 expressed on tumor cells …; experiment: flow cytometry (FACS) on NALM-6 cells
Procedure: as §1

[4] = target: T2, human CD38 expressed on tumor cells …; experiment: flow cytometry (FACS) on TALL-1 cells
Procedure: as §1

[5] = target: T2, human CD38 expressed on tumor cells …; experiment: flow cytometry (FACS) on Ramos.2G6.4C10 cells
Procedure: as §1

[6] = target: T1, recombinant human CD38 extracellular …; experiment: ELISA, plate coated with human CD38 protein, anti-human IgG Fc-HRP detection
Procedure: A 96-well plate was coated with human CD38 protein and incubated overnight at 4° C. The solution in wells were then discarded, washed 3 times with wash buffer, and blocked by the addition of 2% milk in PBS for 60 minutes. After washing 3 times with washing buffer, 100 μL of antibodies at different dilutions were added to each well, and the mixture was incubated at 37° C. for 1 hour; after washing 3 times with washing buffer, HPR-labeled goat anti-human IgG Fc was diluted at 1:5000 with 0.5% BSA, and the mixture was incubated at room temperature for 1 hour; after washing 3 times with washing buffer, 100 μL of TMB substrate solution was added for color development; after reaction at 37° C. for 10 minutes, the reaction was terminated with 50 μL of 2M sulfuric acid solution and the absorbance was read at 450 nm.

[7] = target: T1, recombinant human CD38 extracellular …; experiment: SPR (Biacore), antibody captured on protein A chip, human CD38 recombinant protein as analyte, Langmuir 1:1 fit

EC50 (read off the curve) [1]	EC50 [2]	EC50 [3]	EC50 [4]	EC50 [5]	EC50 [6]	Kd [7]	koff [7]	kon [7]	Binder
~0.1 nM									chimeric anti-human CD38 antibody 48H1-B11 (antibody, V domains shown, also called chimeric antibody 48H1-B11; mAb48H1-B11 (murine parent)) VH: EVQLKQSGPGLMQPSQSLSITCTVSGFSLTSYGIHWLRQSPGKGLEWLGVIWRGGSTDYNAAFMSRLSITKDNSKSQVFFKMNSLQGDDTAIYYCAKGKVTTGFYFDFWGQGTTLTVSS VL: DIQMTQSSSSFSVSLGDRVTITCKASEDIYNRLVWYQQKPGNAPGLLISGVTSLETGVPSRFSGSGSGKDYTLTITSLQTEDVATYYCQQYWSTPYTFGGGTKLEIK
	0.44 nM	0.37 nM	0.41 nM	0.42 nM	0.51 nM	0.278 nM	0.000556 s⁻¹	2e+06 M⁻¹ s⁻¹	humanized CD38 antibody Ab031 (h48H1-VHv7 / h48H1-VKv7) (antibody, V domains shown, also called CM313-1) VH: QVQLQESGPGLVKPSETLSLTCTVSGFSLTSYGIHWIRQPPGKGLEWIGVIWRGGSTDYNPSLKSRVTISKDNSKSQVSLKLSSVTAADTAVYYCAKGKVTTGFYFDFWGQGTLVTVSS VL: EIVMTQSPPTLSLSPGERVTLSCRASEDIYNRLVWYQQKPGQAPRLLISGVTSLETSIPARFSGSGSGTDYTLTISSLQPEDFAVYYCQQYWSTPYTFGQGTKVEIK
	0.54 nM	0.49 nM	0.34 nM	0.58 nM	4.24 nM	1.43 nM	0.00532 s⁻¹	3.71e+06 M⁻¹ s⁻¹	humanized CD38 antibody Ab033 (h48H1-VHv8 / h48H1-VKv7) (antibody, V domains shown, also called CM313-2) VH: QVQLQESGPGLVKPSETLSLTCTVSGFSLTSYGIHWLRQPPGKGLEWIGVIWRGGSTDYNPSLKSRVTISKDTSKSQVSLKLSSVTAADTAVYYCAKGKVTTGFYFDFWGQGTLVTVSS VL: EIVMTQSPPTLSLSPGERVTLSCRASEDIYNRLVWYQQKPGQAPRLLISGVTSLETSIPARFSGSGSGTDYTLTISSLQPEDFAVYYCQQYWSTPYTFGQGTKVEIK
